How the values were obtained:
Rat2 fibroblasts = experiment: Time-lapse videomicroscopy random migration assay (cell speed, polarity); type: cell-based, rat; settings: Rat2 cells expressing the construct
Method: (§1) Cells adapted to microscopy media (Life Technologies, Rockville, Md.) as described above were trypsinized, counted, and resuspended in microscopy media at 7.14×10^3 cells/mL. 1.4 mL (10,000 cells) of this cell suspension was added to a ΔT dish (Bioptechs Inc., Butler, Pa.) that had previously been coated overnight with 10 μg/mL fibronectin (Becton Dickinson) at 4° C. and then blocked with lmg/mL cell-culture-grade BSA (Sigma, St. Louis, Mo.). Cells were allowed to attach and spread for 1 hour at 37° C. before movies were initiated. 10x phase contrast movies were 4.5 hours long with a frame taken every five minutes. A custom time-lapse collection script written in IPLabs was used to automate microscope and camera function. Light was shutter controlled. […] Cell paths were generated from the calculated centroid positions and parameters (speed and membrane flow) were calculated from the resulting path file. Speed was calculated using the Central Difference Method in DIAS, which is equivalent to a root mean squared calculation. […]
Rat 2 cells were exposed to 0, 5 nM, 25 nM, 50 nM, or 500 nM cytochalasin D and motility was measured. One set of cells received no cytochalasin D. Other cells received a low dose of cytochalasin D (e.g. 5 nM or 25 nM) or a high dose of cytochalasin D. (e.g. 500 nM) The motility of the treated cells was assessed using the motility assay described above.

Rat2 cells [1] = experiment: Count of vinculin- or zyxin-positive focal adhesions per cell; type: cell-based, rat; settings: Rat2 cells after complete spreading
Method: Rat2 cells (ATCC, Manassas, Va.) were plated and allowed to spread for 1.5-2 hours on acid-washed glass coverslips that had been coated overnight at 4° C. with 10 μg/mL fibronectin (Becton Dickinson, Franklin Lakes, N.J.). Cells were fixed with ice-cold 4% paraformaldehyde in PBS for 10 minutes at room temperature. Cells were washed twice with PBS and then permeabilized with 0.2% Triton X-100 in PBS for 3 minutes and washed two more times with PBS. Coverslips were blocked for 30 minutes in 5% BSA (RIA grade)/5% normalized Donkey serum in PBS. All subsequent antibody steps were incubated in 1% BSA/PBS for at least 30 minutes and washes were in PBS. Anti-Mena polyclonal antisera (2197, produced by Gertler laboratory) was used at 1:400, anti-VASP polyclonal antisera (M4, Alexis Corporation, San Diego, Calif.) was used at 1:400, coumarin-phallicidin (Molecular Probes Inc., Eugene, Oreg.) was used at 1:20, anti-vinculin monoclonal antibody (F7g, a kind gift from K. Burridge) was used at 1:20. All secondary antibodies (Texas Red-, Cy5-Donkey anti-rabbit or anti-mouse, Jackson ImmunoResearch Laboratories, Inc., West Grove, Pa.) were used at 1:500. Coverslips were mounted with Fluoromount G (Electron Microscopy Sciences, Fort Washington, Pa.) and viewed on a Zeiss Axiophot microscope equipped with a Deltavision imaging and software system (Applied Precision Inc., Issaquah, Wash.).
Cell-population analysis was undertaken to explore the hypothesis that focal adhesion formation and number are unaffected by overexpression or sequestration of Ena/VASP proteins. Because cell migration depends on adhesion as well as actin polymerization at the leading edge, the various cell populations were analyzed to determine if the assembly, morphology or distribution of focal adhesions was affected. EGFP-Mena overexpressing (the “high ” population), FPPPP-mito (SEQ ID NO: 3) and control cells were each stained after complete spreading with a battery of focal adhesion markers (FAK, vinculin, paxillin, tensin, phosphotyrosine, and zyxin).

Rat2 cells [2] = experiment: Membrane flow (protrusion/retraction, shape change) from digitized movies; type: cell-based, rat; settings: centroid fixed, independent of translocation
Method: as §1, with “controlled. Movies were considered analysis-quality if there were no focus or bubble problems and cells remained alive and dividing throughout the experiment. Once a movie met the quality control criteria, it was transferred into the image analysis program DIAS (Solltech, Inc., Oakdale, Iowa.) and cells were outlined using the Trace on Movie command.” for “controlled.”

MV^D7 cells = experiment: Time-lapse videomicroscopy cell speed in Ena/VASP-deficient MV^D7 fibroblasts; type: cell-based, mouse; settings: MV^D7 cells expressing the construct vs parental MV^D7
Method: as §1, with “controlled. Movies were considered analysis-quality if there were no focus or bubble problems and cells remained alive and dividing throughout the experiment. Once a movie met the quality control criteria, it was transferred into the image analysis program DIAS (Solltech, Inc., Oakdale, Iowa.) and cells were outlined using the Trace on Movie command.” for “controlled.”

Listeria = Listeria motility in MVD7 cells expressing Mena constructs; type: cell-based, Listeria monocytogenes; settings: high expression level, compared with GFP-Mena high (FIG. 11)
Method: MVD7 cells were seeded onto a Bioptics dish the night before an experiment, and Listeria was also cultured overnight taking care to not over saturate the bacterial culture. MVD7 cells were then exposed to Listeria. The Bioptics dishes were centrifuged at 500×g for 3 min in a swinging bucket centrifuge to force the bacteria up against the MVD7 cells. The cells were then incubated for 1.5 hrs at 37° C. The plates were washed 3 times with media to remove bacteria not associated with cells. Bacteria were then viewed with 100x phase contrast microscopy. Time-lapse movies were recorded and speeds were quantitated with DIAS software.

Molecule	cell polarity / polarized morphology (Rat2 fibroblasts)	cell speed (Rat2 fibroblasts; fibronectin, 4.5 hour movies)	Number of Focal Adhesions per Cell (±SD), Vinculin+ (Rat2 cells [1])	Number of Focal Adhesions per Cell (±SD), Zyxin+ (Rat2 cells [1])	average membrane flow per unit time (shape change) (Rat2 cells [2])	cell speed (MV^D7 cells)	Listeria motility (speed) (Listeria)
EGFP-Mena: EGFP fused to full-length Mena (amino acids 1-541 of SEQ ID NO: 2), expressed from retroviral vector pMSCV (protein, left off: large carriers) MSEQSICQARAAVMVYDDANKKWVPAGGSTGFSRVHIYHHTGNNTFRVVGRKIQDHQVVINCAIPKGLKYNQATQTFHQWRDARQVYGLNFGSKEDANVFASAMMHALEVLNSQEAAQSKVTATQDSTNLRCIFCGPTLPRQNSQLPAQVQNGPSQEELEIQRRQLQEQQRQKELERERMERERLERERLERERLERERLEQEQLERQRQEREHVERLERERLERLERERQERERERLEQLEREQVEWERERRMSNAAPSSDSSLSSAPLPEYSSCQPPSAPPPSYAKVISAPVSDATPDYAVVTALPPTSTPPTPPLRHAATRFATSLGSAFHPVLPHYATVPRPLNKNSRPSSPVNTPSSQPPAAKSCAWPTSNFSPLPPSPPIMISSPPGKATGPRPVLPVCVSSPVPQMPPSPTAPNGSLDSVTYPVSPPPTSGPAAPPPPPPPPPPPPPPPLPPPPLPPLASLSHCGSQASPPPGTPLASTPSSKPSVLPSPSAGAPASAETPLNPELGDSSASEPGLQAASQPAESPTPQGLVLG	distinct lack of polarity	cell speeds decreased with increasing levels of EGFP-Mena expression	72.7 ± 14.4	73.6 ± 20	changed shape the least	The MV^D7 cells migrated significantly faster than the MV^D7/EGFP-Mena cells	wild-type Listeria are mobile in MVD7 cells that express EGFP-Mena
APPPP-mito: Control of FPPPP-mito with phenylalanine changed to alanine in each repeat; does not bind Ena/VASP proteins (protein, left off: large carriers) VNASDAPPPPTDEELRLALPETPMLLGFNAPATSEPSSFEAPPPPTDEELRLALPETPMLLGFNAPATSEPSSFEAPPPPTEDELEIIRETASSLDSSFTRGDLASLRNAINRHSQNFSDAPPIPTEEELNGRGGRPTSEEFSSLNSGDFTDDENSETTEEEIDRLADLRDRGTGKHSRNAGFLPLNPFASSPVPSLSPKVSKISAPALISDITKKTPFKNPSQPLNVFNKKTTTKTVTKKPTPVKTAPKLAELPATKPQETVLRENKTPFIEKQAETNKQSINMPSLPVIQKEATESDKEEMKPQTEEKMVEESESANNANGKNRSAGIEEGKLIAKSAEDEKAKEEPGNHTTLILAMLAIGVFSLGAFIKIIQLRKNN			81.6 ± 13.9	79.2 ± 29			

Reference: patent US6716597B2, “Methods and products for regulating cell motility” (priority 2000, dated 2004)
